From patent US20230174622A1

Target: eEGFRt (modified EGFRt on edited T cells; variant not specified) (human)
Assay: cell-based or functional assay

## αEGFR-SAP immunotoxin (biotinylated Cetuximab antibody combined with streptavidin-SAP conjugate, 1:1 molar ratio)
  depletion of EGFRt-expressing lymphocytes after 3 days in vitro (flow cytometry), 5 nM and 1 nM: 50%
  reduction of eEGFRt+ cells after in vitro treatment (flow cytometry): 1.8 fold
